The test concerns the target human CD3epsilon/delta-Fc fusion protein (heterodimer of CD3epsilon and CD3delta extracellular domains fused to human IgG Fc) (human) (UniProt P04234). In words: Biacore. (In general: Surface plasmon resonance follows binding to a sensor surface in real time, without labels.)

pKd: −log10 of the molar value.

human CD3epsilon/delta-Fc fusion protein (heterodimer of CD3epsilon and CD3delta extracellular domains fused to human IgG Fc) (human), sequence (chain, as listed by the source mutant, chain 1 of 2): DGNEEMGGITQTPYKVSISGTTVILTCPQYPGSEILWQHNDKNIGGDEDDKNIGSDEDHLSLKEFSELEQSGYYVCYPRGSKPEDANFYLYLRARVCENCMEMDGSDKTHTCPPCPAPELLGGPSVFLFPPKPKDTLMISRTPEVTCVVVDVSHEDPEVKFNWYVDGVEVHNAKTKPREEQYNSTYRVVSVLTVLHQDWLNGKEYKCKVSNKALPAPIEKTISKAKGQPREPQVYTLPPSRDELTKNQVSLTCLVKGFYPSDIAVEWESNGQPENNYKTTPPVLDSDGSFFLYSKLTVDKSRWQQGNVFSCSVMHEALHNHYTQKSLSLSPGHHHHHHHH
human CD3epsilon/delta-Fc fusion protein (heterodimer of CD3epsilon and CD3delta extracellular domains fused to human IgG Fc) (human), sequence (P04234 22-105, stated change not applied, chain 2 of 2): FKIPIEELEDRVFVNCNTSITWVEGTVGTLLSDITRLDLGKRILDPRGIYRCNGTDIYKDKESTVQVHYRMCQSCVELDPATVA

The pKd is the negative decadic logarithm of the Kd, by convention in mol/L. A high value points to a small Kd. Regarding “Single chain antibody DART format MGD006 (CD123xCD3 bi-specific diabody) (bispecific antibody)”, the negative-log Kd (pKd) was 8.05.

The values above are taken from US20190241657A1.
